assay: soluble on expression in E. coli; label from the status in PepcDB or PDB records

| Sequence | soluble on expression in E. coli |
| --- | --- |
| MHTSELLKHIYDINLSYLLLAQRLIVQDKASAMFRLGINEEMATTLAALTLPQMVKLAETNQLVCHFRFDSHQTITQLTQDSRVDDLQQIHTGIMLSTRLLNDVNQPEEALRKKRA | soluble |
| MGRLADTLDALSVRALSPDHRIQGQLHHRTKVDISFTSEDSYYEYKSEQAVAAQLSAVLNALIVGRNEGFCAAVREVTDLRLDDRPHWDARRRRFREERDGAPLEGQSAGGWLTVASVGLRDANATVKPGAFDELDASGFLIEVHSAIADLWKDQAMAMSYLRRTHFG | not soluble |
| MAHHHHHHMKDGDWERRNRLKVYEGIYHVFIRDFKRGSELLLDSISTFASSELMDFNEFILITVVASLPVLSRSELKQQILDSPEVRSANIKDVFHLITVIYNCRYKEVFSALDTVCQHLRGIVYLSQHVNYFFREVRVLVFTQFLDSYSSVTLNSMSAAFGIPPPVLDSMLGTLISNERIACKMDRVSDSITTYRGDTTNFDYHRIVKNGDLLLNRIQKLSRLAEM | not soluble |
| EMVLLPAPQIPLIMKIMKNHTPTWLPGVPTLYEKIVAEATAKGVEIKGIRNSFSGASTLPVRTVEDWENLTGGLLVEGYGLTETSPVLCGNPMNGNRRPGYIGVPFPDTEIRIANPDNLDETMPDGEAGEVLARGPQIFQGYLNKPEATAATFHGDWFRTGDMGVMEEDGFIRLVSRIKEIIITGGFNVYPAEVEEALIAHPDVDDAAVVGRPRKDGSEDVVACIVLKDGAALDPEGLKTHCRKLLTRYKVPRTFYHFEALNKDQLGKVRRREVQQTLLERLGEK | not soluble |
| MGHHHHHHSHMAGGGAGDPGLGAAAAPAPETREHLFKVLVIGELGVGKTSIIKRYVHQLFSQHYRATIGVDFALKVLNWDSRTLVRLQLWDIAGQERFGNMTRVYYKEAVGAFVVFDISRSSTFEAVLKWKSDLDSKVHLPNGSPIPAVLLANKCDQNKDSSQSPSQVDQFCKEHGFAGWFETSAKDNINIEEAARFLVEKILVNHQSFPNEENDVDKIKLDQETLRAENKSQCC | soluble |
| MSFFDKVKGAINSGRDELTRQVGRFKNKKFMQGTVAVCARIAVSSDGVSSEEKQKMMGFLRSSEELKVFDTNEVIEFFNKLVSSFDFDVEIGKGETMKYILALKDQPEAAQLALRVGIAVAKSDGNFDQDEKLASREIAIALGFDPAEFGL | not soluble |
| MPTVPIPARKAATTFDTPSKHERIEVKPPITRFIRRAITRVFGVWSHISTQVVRQWGWYPRVEPYVGYGTGDYSRLICRTVYAPKHAQSGELIRGIRGMLAVPAPRTHVQASIDDMPLNTVQIGVSEVYDKVDRTRDLGSEYAISDSAGYLDLVAEHRLVPGIHRVSYSVANRKPVSANLYTIPASAKVGIISDVDDTIMITQAPVPWKAAYNLLFLDPKKKASVPGMSVLFTRIADLFPGAPFFYLSTSPWNVESSIRNFITDHGFPEGPLLLRDLDPRPKTFVPTGPQHKLEFAEQLMADFPDMKFILVGDDGQKDPTTYATIARRYPGRVLAIVIRELSPRESTGLASVTGLTSTQPTPVTDVPVFTGTTGSNILKTMLPYLKTVLRLEHHHHHH | not soluble |
| MVERMERTMPTTAVRDATSSRRFQPGQAVVGRVERVEEMETEERAALVRAGGQLVRARLEAPLAVGRLYLFEIHERQGTIYWKAIPLSEPASAPSGEEAVRGWQKAWKLPDAALPVLRQALKAGAAATKEEIAALTEAVKETGQPDAAEDVLAHLFRRRLPFSSAVFRALWAAKTGVPLAEGLGKLKAAIAALSAHPAALKLIRAMEKFLSPPLSAYEAAVRLLLSGEEEAETARALLARLGLAPLPEDRRLALREAVQCRRFADIIRQLGLTDEEAFLERWAALDAAYQSGALPAAEAKLWAAARATRDPALSLFCWLRRAAVRLGLEDEAALVRVGKIEDLPSAPSLKRLLLRFLHESGSEGAKRAAEAILDQLDGMAIAAGGDGLIEHVWISFPLPLGGRSSDFAVCWQGRRKQGGPLDADYNRIVCCLTLEELGEVIVDMRVQRRIVHISIFHDDPRLAVAAARMAPLVKERFQAHGYALSGIDVKATRSAPPPPSVFLFADSCSEVDCQA | not soluble |
| MSDVSTSVQSKFARLAKKKENITYMKREQLTETDKDIAPVLDLKCKDVSAIMNKFKVLMEIQDLMFEEMRETLKNDLKAVLGGKATIPEVKNSENSSSRTEFQQIINLALQKTGMVGKIEGENSKIGDDNENLTFKLEVNELSGKLDNTNEYNSNDGKKLPQGESRSYEVMGSMEETLCNIDDRDGNRNVHLEFTERESRKDGEDEFVKEMREERKFQKLKNKEEVLKASREEKVLMDEGAVLTLAADLSSATLDISKQWSNVFNILRENDFEPKFLCEVKLAFKCDGEIKTFSDLQSLRKFASQKSSMKELLKDVLPQKEEINQGGRNYGIQEKRDKTLIDSKHRAGEITSDGLSFLFLKEVKVAKPEEMKNLETQEEEFSELEELDEEASGMEDDEDTSGLEEEEEEPSGLEEEEEEEASGLEEDEASGLEEEEEQTSEQDSTFQGHTLVDAKHEVEITSDGMETTFIDSVEDSESEEEEEGKSSETGKVKTTSLTEKKASRRQKEIPFSYLVGDSGKKKLVKHQVVHKTQEEEETAVPTSQGTGTPCLTLCLASPSKSLEMSHDEHKKHSHTNLSISTGVTKLKKTEEKKHRTLHTEELTSKEADLTEETEENLRSSVINSIREIKEEIGNLKSSHSGVLEIENSVDDLSSRMDILEERIDSLEDQIEEFSKDTMQMTKQIISKERQRDIEERSRSCNIRLIGIPEKESYENRAEDIIKEIIDENFAELKKGSSLEIVSACRVPSKIDEKRLTPRHILVKFWNSSDKEKIIRASRERREITYQGTRIRLTADLSLDTLDARSKWSNVFKVLLEKGFNPRILYPAKMAFDFRGKTKVFLSIEEFRDYVLHMPTLRELLGNNIP | soluble |
| STKFPTLKRLFGEAQAAWLVKESEQAVLEIDAFCKQHHIDAQLSLKGVYYTATNHVQAGSMQPVVDELSRLGVNSWRRCKEDELHANTGSPRHLEGFHSSVAASVQPALLARGLRRVALEMGIEIFENTPMTKLDFGQPATVSTPDAQIKAKQVVLALNAWMVEHFTQFKNSIVVVSSDMVITKPLGESLRKTGWQAGTSVLDSRIFVHYYRDTPDGRLMLGKGGNQFSFNNQVDVMFNKPTRYQNLLRKSFDKLFPSLKEAEFEYSWTGGSDRSTSGFPFFGKLNEQRNVFYGFGYSGNGVAQTRMGGKILSSMVLGLDNEWTRSGLAKGPLGHFPPEPFRWIGAMTVRNAVRRKEEAEDCGQKPFIWDKWLAKLAGPAGKADKLD | not soluble |
| GSGMKETAAAKFGERQHMDSPDLGTDDDDKAMACSAGPSGFFTRLGRLIKEKAKSDVEKVFSGFSKTRENLAVIDELLLFWNLAETDRVLDELEEALLVSDFGPKITVRIVERLREDIMSGKLKSGSEIKDALKESVLEMLAKKNSKTELQLGFRKPAVIMIVGVNGGGKTTSLGKLAHRLKNEGTKVLMAAGDTFRAAASDQLEIWAERTGCEIVVAEGDKAKAATVLSKAVKRGKEEGYDVVLCDTSGRLHTNYSLMEELIACKKAVGKIVSGAPNEILLVLDGNTGLNMLPQAREFNEVVGITGLILTKLDGSARGGCVVSVVEELGIPVKFIGVGEAVEDLQPFDPEAFVNAIFS | soluble |
| MGSDKIHHHHHHMRLVLSGYYGFYNVGDEAILQSIIKALYEEEPTLELVVLSNDPDYTRKMYGVEAVNRWDIRAIYKEIKRSSGLISGGGSLLQDKTSIKSILYYTGIMRIARFLKKPYYIYAQGIGPITKRQNRLLVKWQVSKAEYISVRDEDSFLYLKEIGIKKDIELVPDPVLACQSEGMKSEWLQKHSIQGKVIAVSVRYWDAKEDYMKKLADTLKKFKRDGYHILFVPMHGPFDQNASRDIINLMGEEAHMLPYKLDIHEKISIFSECSLLIGMRLHALILSAVANIPMVGISYDPKVDSFLQQVNQPIIGNVDGDWTAETLYNVAMKQLEQKEYIQAKLEQRVEELREQISTASRYIISDLNSKEFKKENVEFHK | not soluble |
| MELASNFDEFISTQSIEEGLDFGCNLLSSALRLQGDTDPAQAQVLLQELTQYLSLRYVGEHGLALEYLAGLGHQCSPDNYRHSQFWGQLKWIANEIGLSDTALNSLALPPGVLRSGGA | not soluble |
| MGVYGMEQNFGLISIIMAAYNAENTIEKAVMSVMAQTYTQFELIIINDCSTDKTLSIIKKFEEFDKRIFLINNSYNRGVSYSRRYGLEKARGEWIAILDSDDAWAADKLEKQIRLQKEKNADLVYTGSAFMDSSGNSIEWYLHVPPEIGYRKLLKQNLISNSSALVRKELYMQYYASGDNMHEDFAIWLRILKTGRKAYGIDEPLLIYRFMRKSKSGNKLIAAKMNWNTYRYIGLDVVSRMYYMIWYMFNGLKKYITLNNEVAKV | not soluble |
| MSLVERVILIVLDSVGAGEMPDADKYGDKGSDTIGNISKAVGGLKLPDMVKMGLGNISGIKGVDKVQYPIGAFGKLKEMSKGKDTVTGHWEMSGVILEEPLNTYPNGFPKDIIDEFEKKIGRKVIGNKVASGTEIIKELGDEHIKTGCPIVYTSADSVFQVAAHEEIIPLDELYKICKVAREMLVDDRTVGRVIARPFVGKNSNYTRTSNRRDFALDPFNKTMLEYIKENKSNVMCVGKIEDIFNKKGVTEAVHIKNNMDGVDKTLEYMKTDKKGLIFTNLVDFDMLYGHRNDPKGYAKALEEFDGRINEIKTNMKDYDVLMITADHGCDPTTESTDHSREYIPFIAYGKDIKGGADIKIRDSFSDIGKTILDLLQVENNLVGKSFKDIIMKEGHHHHHH | not soluble |
| MEYDAFITNQLRGAQNQSSGLTTRYEQMSKIDNLLADKSSSLSGSLQSFFTSLQTLVSNAEDPAARQALIGKAEGLVNQFKTTDQYLRDQDKQVNIAIGSSVAQINNYAKQIANLNDQISRMTGVGAGASPNDLLDQRDQLVSELNKIVGVEVSVQDGGTYNLTMANGYTLVQGSTARQLAAVPSSADPTRTTVAYVDEAAGNIEIPEKLLNTGSLGGLLTFRSQDLDQTRNTLGQLALAFADAFNAQHTKGYDADGNKGKDFFSIGSPVVYSNSNNADKTVSLTAKVVDSTKVQATDYKIVFDGTDWQVTRTADNTTFTATKDADGKLEIDGLKVTVGTGAQKNDSFLLKPVSNAIVDMNVKVTNEAEIAMASESKLDPDVDTGDSDNRNGQALLDLQNSNVVGGNKTFNDAYATLVSDVGNKTSTLKTSSTTQANVVKQLYKQQQSVSGVNLDEEYGNLQR | soluble |
| MMRVKFNGKELDTDFKTSLEFFENISKNENDVWIINGFATKENIALNENDELFCIEKNTLPPKDALDAMMRARHTPKLHDKLKNGRVAVCGLGGLGSHIAINLARSGVGYLKLIDFDVIEPSNLNRQAYRVSDLGKFKTEALKEQISEINPYISVEICTLKIDEDNLESLFKDIDIVCEAFDSAIAKAMIAQNFHRFYKDGILICASGLAGYGDSNSIQTRKIAKNFYVCGDLVNGAKLGNGLMAPRVNICAGHQSNLVLELLANKELEHHHHHH | soluble |
| MGSDKIHHHHHHMDLFSASFNPHQIAPLAERMRPRTLDDYIGQSEIIGKGKLLRRAIEADRVTSLILYGPPGTGKTSLAQVIANTTSSGFVRINAVAAGVKEIREIIQTATEQLHLYGKKTLVFCDEVHRFNKGQQDALLPAVENGTITFIGATTENPFFELNSALLSRSTLFRLQPLTAEDIRSGLAQALADKERGLGNYSVSIDPEAWEHWLNFANGDLRRALNALELAVLTTPPEQGVRRITLSVAEESIQQRAMRFDKNGDNHYDIVSAFIKSMRGSDPDAALYWLAVLLESGEDPRFIVRRIIVHASEDVGLADPMVMLQAHAAANALEWVGLPEARIPIAQAVLAIATAPKSNSTIMAIDRATGYVRSHPTGQVPAHLRDANYPGAKKMGHGKNYLYPHDYPGHWVEQGYLPQEVQGENFFTPSGTGQDRDNRGKPQVIPPSE | not soluble |
